Key:
[1] = biological target: αVβ3(N339S) transiently expressed on HEK293T cells (human) (UniProt P06756)
[2] = biological target: αVβ3(N339S) transiently expressed on HEK293T cells (human) (UniProt P06756); assay: flow cytometry on cells
[3] = biological target: wild-type αVβ3 stably expressed in K562 cells (K562-αVβ3) (human) (UniProt P06756); assay: flow cytometry on cells
wild-type αVβ3 stably expressed in K562 cells (K562-αVβ3) (human), sequence (P06756 31-1048, chain 1 of 2): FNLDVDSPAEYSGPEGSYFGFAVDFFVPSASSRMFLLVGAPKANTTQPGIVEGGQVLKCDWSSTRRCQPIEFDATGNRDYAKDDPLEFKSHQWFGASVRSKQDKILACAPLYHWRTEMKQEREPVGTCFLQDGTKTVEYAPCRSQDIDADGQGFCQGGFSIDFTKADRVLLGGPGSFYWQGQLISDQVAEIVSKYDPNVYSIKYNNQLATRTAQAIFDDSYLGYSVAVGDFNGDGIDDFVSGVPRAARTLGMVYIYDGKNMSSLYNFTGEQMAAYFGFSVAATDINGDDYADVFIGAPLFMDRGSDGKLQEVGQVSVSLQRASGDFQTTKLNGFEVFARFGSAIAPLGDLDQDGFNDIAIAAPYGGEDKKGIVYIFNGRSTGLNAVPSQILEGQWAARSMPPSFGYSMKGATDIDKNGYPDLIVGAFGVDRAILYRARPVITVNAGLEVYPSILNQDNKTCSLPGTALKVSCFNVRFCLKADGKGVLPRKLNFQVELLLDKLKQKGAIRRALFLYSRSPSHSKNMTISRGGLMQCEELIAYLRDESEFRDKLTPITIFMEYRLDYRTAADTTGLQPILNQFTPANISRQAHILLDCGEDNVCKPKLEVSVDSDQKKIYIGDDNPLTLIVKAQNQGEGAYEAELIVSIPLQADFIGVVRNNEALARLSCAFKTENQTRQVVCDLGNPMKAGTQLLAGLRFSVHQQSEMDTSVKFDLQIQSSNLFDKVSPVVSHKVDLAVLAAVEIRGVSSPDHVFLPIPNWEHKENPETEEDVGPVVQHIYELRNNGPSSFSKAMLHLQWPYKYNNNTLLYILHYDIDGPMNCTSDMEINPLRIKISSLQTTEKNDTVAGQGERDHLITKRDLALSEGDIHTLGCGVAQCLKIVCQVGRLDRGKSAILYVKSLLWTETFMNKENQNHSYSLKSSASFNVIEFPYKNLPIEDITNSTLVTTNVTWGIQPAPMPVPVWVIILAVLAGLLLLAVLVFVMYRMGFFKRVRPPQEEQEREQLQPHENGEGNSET
wild-type αVβ3 stably expressed in K562 cells (K562-αVβ3) (human), sequence (P05106 27-788, chain 2 of 2, further chain): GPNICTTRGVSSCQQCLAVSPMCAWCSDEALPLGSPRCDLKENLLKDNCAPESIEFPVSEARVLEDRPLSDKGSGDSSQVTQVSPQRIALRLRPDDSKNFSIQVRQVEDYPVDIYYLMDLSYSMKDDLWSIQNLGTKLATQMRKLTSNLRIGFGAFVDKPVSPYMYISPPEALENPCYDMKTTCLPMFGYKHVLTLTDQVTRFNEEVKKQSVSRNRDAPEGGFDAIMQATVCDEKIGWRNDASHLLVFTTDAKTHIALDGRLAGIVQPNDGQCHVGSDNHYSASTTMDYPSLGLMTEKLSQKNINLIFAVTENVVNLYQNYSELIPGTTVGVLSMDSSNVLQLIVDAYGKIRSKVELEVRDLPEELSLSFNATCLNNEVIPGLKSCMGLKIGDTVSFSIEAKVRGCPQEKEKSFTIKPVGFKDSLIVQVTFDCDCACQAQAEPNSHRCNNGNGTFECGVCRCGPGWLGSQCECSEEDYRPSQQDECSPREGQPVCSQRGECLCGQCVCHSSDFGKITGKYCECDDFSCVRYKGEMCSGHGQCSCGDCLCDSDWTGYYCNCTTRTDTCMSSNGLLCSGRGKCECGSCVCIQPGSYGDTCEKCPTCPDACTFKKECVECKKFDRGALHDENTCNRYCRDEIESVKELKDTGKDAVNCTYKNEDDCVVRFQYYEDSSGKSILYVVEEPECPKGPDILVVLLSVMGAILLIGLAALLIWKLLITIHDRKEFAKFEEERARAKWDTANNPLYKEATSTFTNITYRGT

10th type III RGD-domain of wild-type fibronectin (wtFN10) (domain or fragment), sequence (P02751 45-2432): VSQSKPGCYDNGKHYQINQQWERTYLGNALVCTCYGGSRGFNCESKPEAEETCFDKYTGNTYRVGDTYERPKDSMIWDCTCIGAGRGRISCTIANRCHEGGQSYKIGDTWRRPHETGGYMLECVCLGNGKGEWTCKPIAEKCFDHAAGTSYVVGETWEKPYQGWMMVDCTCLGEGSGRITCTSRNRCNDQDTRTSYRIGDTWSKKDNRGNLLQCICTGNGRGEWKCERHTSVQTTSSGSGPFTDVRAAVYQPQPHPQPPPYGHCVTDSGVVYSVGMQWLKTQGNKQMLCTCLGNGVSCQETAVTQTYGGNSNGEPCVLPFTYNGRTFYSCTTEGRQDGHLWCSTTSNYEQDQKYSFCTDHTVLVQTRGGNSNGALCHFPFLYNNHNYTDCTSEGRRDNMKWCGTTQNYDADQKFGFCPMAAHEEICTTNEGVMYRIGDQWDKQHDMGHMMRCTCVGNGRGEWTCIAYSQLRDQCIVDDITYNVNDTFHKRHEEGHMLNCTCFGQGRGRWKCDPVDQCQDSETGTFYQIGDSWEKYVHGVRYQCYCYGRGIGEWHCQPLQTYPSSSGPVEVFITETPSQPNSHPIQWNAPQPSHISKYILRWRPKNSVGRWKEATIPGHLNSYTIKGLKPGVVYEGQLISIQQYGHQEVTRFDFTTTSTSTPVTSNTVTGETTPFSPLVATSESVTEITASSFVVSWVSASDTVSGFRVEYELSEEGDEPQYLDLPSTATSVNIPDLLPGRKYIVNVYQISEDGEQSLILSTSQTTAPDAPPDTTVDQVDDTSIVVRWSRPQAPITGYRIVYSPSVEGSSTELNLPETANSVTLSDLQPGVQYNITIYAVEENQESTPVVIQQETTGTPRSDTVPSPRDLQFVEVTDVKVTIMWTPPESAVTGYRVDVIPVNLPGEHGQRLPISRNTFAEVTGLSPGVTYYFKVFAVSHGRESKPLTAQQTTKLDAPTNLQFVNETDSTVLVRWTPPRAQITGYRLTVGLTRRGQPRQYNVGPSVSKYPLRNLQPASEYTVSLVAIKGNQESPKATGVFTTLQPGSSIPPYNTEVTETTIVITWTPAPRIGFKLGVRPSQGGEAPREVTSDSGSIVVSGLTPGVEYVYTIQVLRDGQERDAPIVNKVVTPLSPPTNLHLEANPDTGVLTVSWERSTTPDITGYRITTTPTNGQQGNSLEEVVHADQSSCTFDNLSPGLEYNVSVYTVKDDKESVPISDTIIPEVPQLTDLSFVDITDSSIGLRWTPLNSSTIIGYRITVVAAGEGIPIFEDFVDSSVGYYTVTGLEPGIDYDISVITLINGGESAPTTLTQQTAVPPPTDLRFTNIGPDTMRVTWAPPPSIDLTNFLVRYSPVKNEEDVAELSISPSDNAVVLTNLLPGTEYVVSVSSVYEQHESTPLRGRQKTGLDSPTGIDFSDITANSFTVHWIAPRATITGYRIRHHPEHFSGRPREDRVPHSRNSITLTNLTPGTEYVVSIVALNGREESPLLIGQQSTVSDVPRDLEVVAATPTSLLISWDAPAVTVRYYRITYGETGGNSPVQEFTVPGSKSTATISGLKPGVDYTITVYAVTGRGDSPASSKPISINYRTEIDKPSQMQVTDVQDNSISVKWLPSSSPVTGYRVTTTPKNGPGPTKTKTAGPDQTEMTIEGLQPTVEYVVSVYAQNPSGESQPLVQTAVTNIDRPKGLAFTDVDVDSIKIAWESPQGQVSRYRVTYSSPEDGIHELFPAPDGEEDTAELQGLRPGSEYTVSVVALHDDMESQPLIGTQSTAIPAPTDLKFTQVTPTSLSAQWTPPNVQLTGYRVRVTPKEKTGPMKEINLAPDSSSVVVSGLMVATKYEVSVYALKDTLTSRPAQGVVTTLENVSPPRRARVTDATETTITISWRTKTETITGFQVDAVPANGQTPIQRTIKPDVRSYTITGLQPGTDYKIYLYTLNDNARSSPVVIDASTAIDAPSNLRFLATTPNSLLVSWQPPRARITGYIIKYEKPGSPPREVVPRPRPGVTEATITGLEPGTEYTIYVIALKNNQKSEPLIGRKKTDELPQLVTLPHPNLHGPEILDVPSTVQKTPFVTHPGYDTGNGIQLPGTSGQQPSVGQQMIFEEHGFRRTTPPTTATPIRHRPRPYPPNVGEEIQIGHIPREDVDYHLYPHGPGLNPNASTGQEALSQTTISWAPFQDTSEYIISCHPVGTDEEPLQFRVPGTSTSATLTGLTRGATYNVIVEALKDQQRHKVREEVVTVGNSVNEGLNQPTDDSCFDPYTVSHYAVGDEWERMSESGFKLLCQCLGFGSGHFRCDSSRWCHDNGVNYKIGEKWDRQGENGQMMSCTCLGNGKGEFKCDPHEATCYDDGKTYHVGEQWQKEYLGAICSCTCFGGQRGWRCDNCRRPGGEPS
αVβ3(N339S) transiently expressed on HEK293T cells (human), sequence (P06756 31-1048, chain 1 of 2): as the sequence (P06756 31-1048, chain 1 of 2) above
αVβ3(N339S) transiently expressed on HEK293T cells (human), sequence (P05106 27-788 N339S, chain 2 of 2, further chain): as the sequence (P05106 27-788, chain 2 of 2, further chain) above, with N313S counted along it

AP5 epitope expression (flow cytometry, HEK293T) [1]: 2 fold | fold increase of binding by the N339S mutation over wild-type αVβ3 [2]: 6 fold | fold increase of binding (MFI) in Mn2+ over Ca2+-Mg2+ [3]: 10 fold
Substance: 10th type III RGD-domain of wild-type fibronectin (wtFN10) (domain or fragment)

Source: article PMC4012256
